B1: Inhibitor of nuclear factor kappa-B kinase subunit beta (Homo sapiens), O14920 (parent)
chain: MSWSPSLTTQTCGAWEMKERLGTGGFGNVIRWHNQETGEQIAIKQCRQELSPRNRERWCLEIQIMRRLTHPNVVAARDVPEGMQNLAPNDLPLLAMEYCQGGDLRKYLNQFENCCGLREGAILTLLSDIASALRYLHENRIIHRDLKPENIVLQQGEQRLIHKIIDLGYAKELDQGSLCTSFVGTLQYLAPELLEQQKYTVTVDYWSFGTLAFECITGFRPFLPNWQPVQWHSKVRQKSEVDIVVSEDLNGTVKFSSSLPYPNNLNSVLAERLEKWLQLMLMWHPRQRGTDPTYGPNGCFKALDDILNLKLVHILNMVTGTIHTYPVTEDESLQSLKARIQQDTGIPEEDQELLQEAGLALIPDKPATQCISDGKLNEGHTLDMDLVFLFDNSKITYETQISPRPQPESVSCILQEPKRNLAFFQLRKVWGQVWHSIQTLKEDCNRLQQGQRAAMMNLLRNNSCLSKMKNSMASMSQQLKAKLDFFKTSIQIDLEKYSEQTEFGITSDKLLLAWREMEQAVELCGRENEVKLLVERMMALQTDIVDLQRSPMGRKQGGTLDDLEEQARELYRRLREKPRDQRTEGDSQEMVRLLLQAIQSFEKKVRVIYTQLSKTVVCKQKALELLPKVEEVVSLMNEDEKTVVRLQEKRQKELWNLLKIACSKVRGPVSGSPDSMNASRLSQPGQLMSQPSTASNSLPEPAKKSEELVAEAHNLCTLLENAIQDTVREQDQSFTALDWSWLQTEEEEHSCLEQAS
B2: Inhibitor of nuclear factor kappa-B kinase subunit alpha (Homo sapiens), O15111 (parent)
chain: MERPPGLRPGAGGPWEMRERLGTGGFGNVCLYQHRELDLKIAIKSCRLELSTKNRERWCHEIQIMKKLNHANVVKACDVPEELNILIHDVPLLAMEYCSGGDLRKLLNKPENCCGLKESQILSLLSDIGSGIRYLHENKIIHRDLKPENIVLQDVGGKIIHKIIDLGYAKDVDQGSLCTSFVGTLQYLAPELFENKPYTATVDYWSFGTMVFECIAGYRPFLHHLQPFTWHEKIKKKDPKCIFACEEMSGEVRFSSHLPQPNSLCSLVVEPMENWLQLMLNWDPQQRGGPVDLTLKQPRCFVLMDHILNLKIVHILNMTSAKIISFLLPPDESLHSLQSRIERETGINTGSQELLSETGISLDPRKPASQCVLDGVRGCDSYMVYLFDKSKTVYEGPFASRSLSDCVNYIVQDSKIQLPIIQLRKVWAEAVHYVSGLKEDYSRLFQGQRAAMLSLLRYNANLTKMKNTLISASQQLKAKLEFFHKSIQLDLERYSEQMTYGISSEKMLKAWKEMEEKAIHYAEVGVIGYLEDQIMSLHAEIMELQKSPYGRRQGDLMESLEQRAIDLYKQLKHRPSDHSYSDSTEMVKIIVHTVQSQDRVLKELFGHLSKLLGCKQKIIDLLPKVEVALSNIKEADNTVMFMQGKRQKEIWHLLKIACTQSSARSLVGSSLEGAVTPQTSAWLPPTSAEHDHSLSCVVTPQDGETSAQMIEENLNCLGHLSTIIHEANEEQGNSMMNLDWSWLTE

Variants of: B1
Details: with ikba_human NFKBIA

effect of a mutation on the interaction	Variant
decreasing interaction	K44A

Variants of: B2
Details: with ikba_human NFKBIA

effect of a mutation on the interaction	Variant
disrupting interaction	K44M

From IntAct's records for PubMed 12486103
